According to patent US20130089566A1:

molecular target: polypeptide B9-23 composed of the ninth to twenty-third amino acid residues of the amino terminal on B chain of human insulin (human)

T cell proliferation (CFSE staining, flow cytometry) | Substance
8.94% | spleen T cells of Balb/c mice of the B9-23 immune group (cells without a defined receptor)
0.08% | spleen T cells of Balb/c mice of the pcDB9-23 and B9-23 coimmune group (cells without a defined receptor)
22.3% | spleen T cells of Balb/c mice of the pcDB9-23 immune group (cells without a defined receptor)
